Results published in the supplement of paper PMC10567573.

B1: RIPK4 (parent)
chain: AAWQGHLPIVKLLAKQPGVSVNAQ
B2: ESRRG (parent)
chain: YSCPATNECEITKRRRKSCQACRF

Variants of: B1
Assay: protein stability index of a GFP-peptide fusion (GPS, HEK-293T) (PSI 1-6); higher = more stable
Details: c terminus: a fixed tail appended
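Further: lentivirally expressed fusions sorted by FACS into six bins by GFP to DsRed ratio, PSI derived from sequencing read proportions per bin multiplied by bin number.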

Protein stability index of substitutions, site by site:
V21: D 3.05; T 2.18; N 2.99; Q 2.3; H 2.45; A 2.62; I 2.43; K 2.8; R 2.75; L 2.51; M 1.95; E 2.92; P 2.3; C 1.54; F 2.23; Y 1.89; S 2.81; G 1.6
N22: Q 1.98; W 1.36; R 1.98; D 2.48; L 2.06; C 1.89; K 2.29; I 2.22; V 3.92; Y 1.39; M 2.61; G 1.98; T 2.58; P 2.19; S 3.35; F 1.55; A 2.15; H 2.37
A23: R 2.64; Y 1.63; E 2.92; S 2.52; Q 3.54; K 2.6; I 1.72; C 2.89; L 2.01; V 2.19; D 2.65; G 2.54; P 2.03; F 1.41; H 1.79; T 2.4; M 1.74; N 2.92
S20: I 2.33; M 2.29; P 2.05; V 1.82; K 1.96; R 2.97; W 2.83; L 1.76; Y 1.66; T 2.4; Q 2.35
Q24: H 1.93; D 3.29; N 2.39; P 1.89; R 3.16; A 2.08; F 2.07; L 2.83; I 1.61; W 1.58; C 2.19; E 3.17; G 1.93; K 2.78; S 2.69; T 1.93; Y 1.5; V 3.06; M 1.86

Variants of: B2
Assay: as above
Details: c terminus: a fixed tail appended

Protein stability index: each site, then its substitutions
K13: R 3.64; T 3.2; C 3.56; H 3.44; G 3.16; N 3.43; P 3.46; S 3.5; V 3.59; I 3.15; Y 2.78; M 3.15; A 3.28; L 3.15; F 2.67; Q 3.45; D 3.68; E 3.45; W 2.52
C9: L 3.08; K 3.91; E 3.79; A 3.39; V 3.46; S 3.66; N 3.18; Q 3.47; P 3.5; F 3.32; I 3.48; H 3.68; R 3.38; W 2.54; M 3.59; T 3.61; D 3.4; Y 2.69; G 3.82
T12: V 3.33; L 2.71; D 3.74; H 4.38; P 3.86; N 3.59; Q 3.25; M 2.97; A 3.32; R 3.56; S 3.46; Y 2.69; C 3.85; G 3.41; I 2.69; W 2.31; K 3.27; F 2.19; E 3.75
N7: R 3.56; T 3.61; L 2.74; E 3.19; H 3.88; Y 2.06; A 2.64; W 2.35; K 3.57; Q 3.36; S 3.01; M 2.96; D 3.31; P 3.55; F 2.52; C 2.42; G 3.29; V 3.14; I 2.83
R14: A 3.51; C 4.61; D 3.76
Y1: R 4.21; N 4.29; M 4.2; D 4.05; W 3.11; I 3.6; G 4.02; C 4.88; V 3.93; L 4.09; E 4.13; P 4.32; H 3.8; A 4.13; S 4.28; T 4.35; F 3.36; K 3.92; Q 4.19
A5: F 2.79; D 3.38; T 2.78; C 3.43; N 3.27; Q 3.26; G 3.58; W 1.51; M 3; H 3.73; E 3.73; S 3.33; K 3.36; Y 3.05; I 3.01; V 3.03; P 3.12; L 3.2; R 2.89
T6: H 3.65; G 3.65; R 3.46; F 2.47; E 3.37; S 3.1; Y 2.29; M 3.38; W 2.26; K 3.72; N 4.04; I 3.31; V 3.1; A 3.13; L 3.1; Q 3.42; P 2.2; C 3.76; D 3.71
E10: P 3.09; N 3.41; L 3.06; V 2.66; M 2.9; H 3.08; Y 2.39; C 3.06; A 3.27; I 2.8; F 2.53; Q 3.59; S 3.14; K 3.41; R 3.44; D 3.34; T 3.27; W 2.22; G 3.23
E8: C 3.12; G 3.54; D 2.92; A 3.46; T 3.25; F 1.91; S 2.97; Q 3.52; R 3.13; V 3.05; L 3.02; M 2.88; P 3.26; Y 2.32; H 3.14; K 3.14; I 2.87; N 3.29; W 1.96
P4: I 2.53; A 3.03; M 2.76; Y 2.59; W 1.47; K 3.18; D 3.48; T 3.21; V 3.09; Q 3.11; S 3.11; F 2.39; C 2.92; G 2.93; L 2.64; H 2.91; N 3.24; E 3.2; R 3.09
S2: R 4.17; Y 2.89; E 4.1; Q 2.55; D 3.87; C 2.52; I 1.92; L 2.96; V 2.23; P 2.98; K 3.15; M 3.27; N 3.4; W 2.33; G 3.58; H 2.47; T 2.85; A 2.1; F 3
C3: A 4.23; G 3.44; V 4.16; M 3.55; Y 3.81; F 3.12; T 3.99; I 3.37; P 3.58; D 3.72; N 3.79; H 2.7; W 2.83; K 3.83; R 3.05; E 4.09; L 3.53; Q 3.62; S 3.56
I11: F 3.26; T 3.69; P 3.58; W 3.44; M 3.14; L 2.88; H 4.47; G 3.47; K 3.25; C 3.83; N 3.55; E 3.95; A 3.39; Q 3.51; S 3.63; R 3.37; Y 3.04; V 3.25; D 3.41
